The results in this text go back to patent US20060257938A1, “Method of screening for drugs that block ligand binding to a lipid binding protein” (priority 2005, published 2006).

Where a chain is given by its changes, count along the chain named. Where “and” joins values, the source holds several entries; their conditions need not be identical. Identical values can stand only once.

The chains are these.
B1: 73L, 72A (protein, listed as Rattus norvegicus)
chain: AFDGTWKVDRNENYEKFMEKMGINVVKRKLGAHDNLKLTITQEGNKFTVKESSNFRNIDVVFELGVDFAYSALDGTELTGTWTMEGNKLVGKFKRVDNGKELIAVREISGNELIQTYTYEGVEAKRIFKKE
modifications: PEPTIDE (1)...(131) wild-type rat intestinal fatty acid binding protein
B2: 73Q, 72A (protein, listed as Rattus norvegicus)
chain: B1 chain with L73Q
modifications: PEPTIDE (1)...(131) wild-type rat intestinal fatty acid binding protein
B3: 73P, 72A (protein, listed as Rattus norvegicus)
chain: B1 chain with L73P
modifications: PEPTIDE (1)...(131) wild-type rat intestinal fatty acid binding protein
B4: 73V, 72A (protein, listed as Rattus norvegicus)
chain: B1 chain with L73V
modifications: PEPTIDE (1)...(131) wild-type rat intestinal fatty acid binding protein
B5: 73T, 72A (protein, listed as Rattus norvegicus)
chain: B1 chain with L73T
modifications: PEPTIDE (1)...(131) wild-type rat intestinal fatty acid binding protein
B6: 73N, 72A (protein, listed as Rattus norvegicus)
chain: B1 chain with L73N
modifications: PEPTIDE (1)...(131) wild-type rat intestinal fatty acid binding protein
B7: 73R, 72A (protein, listed as Rattus norvegicus)
chain: B1 chain with L73R
modifications: PEPTIDE (1)...(131) wild-type rat intestinal fatty acid binding protein
B8: 73S, 72A (protein, listed as Rattus norvegicus)
chain: B1 chain with L73S
modifications: PEPTIDE (1)...(131) wild-type rat intestinal fatty acid binding protein

The first assay can be described thus: Probe fluorescence ratio response to arachidonic acid relative to ADIFAB2. It is filed as binding. The settings on record: Arachidonic acid; response relative to ADIFAB2. The procedure, abridged: (§1)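 Each fatty acid's response was expressed relative to ADIFAB2, the rI-FABP-L72A probe, as ΔR/ΔRreference. ΔR is the change in the background-corrected two-wavelength intensity ratio R=Fλ1/Fλ2 from its analyte-free baseline R0. Emission was read near about 420-480 nm for unbound and about 495-580 nm for FFA-bound probe.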
Consider B1, for which the “DR/DR AA” value is 0.73.

Turning to B2, the “DR/DR AA” value amounted to 1.36.

Regarding B3, the “DR/DR AA” value worked out at 0.42.

Turning to B4, the “DR/DR AA” value stood at 0.98.

Turning to B5, the “DR/DR AA” value is given as 0.87.

B6: the “DR/DR AA” value is 0.48.

Turning to B7, the “DR/DR AA” value is 0.40.

B8: the “DR/DR AA” value was determined as 1.01.

The same assay, now with this note: arachidonic acid; response relative to ADIFAB2.
For the molecule B1, the “DR/DR AA” value is reported as 0.733.

Consider B4, for which the “DR/DR AA” value was 0.976.

In the case of B5, the “DR/DR AA” value is recorded as 0.872.

A short description of the next assay: Probe fluorescence ratio response to linolenic acid relative to ADIFAB2. It is filed as binding. As to conditions: response relative to ADIFAB2. The procedure, abridged:
as §1
In the case of B1, the “DR/DR LNA” value was 0.34 and 0.338.

As to B2, the “DR/DR LNA” value was found to be 1.31.

For the molecule B3, the “DR/DR LNA” value turned out to be 0.41.

On to B4, for which the “DR/DR LNA” value was 0.50 and 0.496.

Turning to B5, the “DR/DR LNA” value is 0.77 and 0.765.

B6: the “DR/DR LNA” value came to 0.47.

Take B7: the “DR/DR LNA” value came to 0.33.

On to B8, for which the “DR/DR LNA” value is 1.08.

The next assay is described as follows: Probe fluorescence ratio response to linoleic acid relative to ADIFAB2. The class given is binding. The settings on record: response relative to ADIFAB2. A digest of the protocol: as §1
In the case of B1, the “DR/DR LA” value was 0.33 and 0.325.

With B2, the “DR/DR LA” value came to 1.39.

For the molecule B3, the “DR/DR LA” value was found to be 0.30.

In the case of B4, the “DR/DR LA” value is 0.40 and 0.396.

Turning to B5, the “DR/DR LA” value is 0.77 and 0.768.

For B6, the “DR/DR LA” value is listed as 0.43.

For the molecule B7, the “DR/DR LA” value is recorded as 0.36.

With B8, the “DR/DR LA” value is recorded as 1.05.

The next assay is described as follows: Probe fluorescence ratio response to oleic acid relative to ADIFAB2. It is filed as binding. As to conditions: response relative to ADIFAB2. The procedure, abridged:
as §1
As to B1, the “DR/DR OA” value is on record as 0.38.

Turning to B2, the “DR/DR OA” value is recorded as 1.28.

Regarding B3, the “DR/DR OA” value stood at 0.30.

For B4, the “DR/DR OA” value is 0.60 and 0.603.

In the case of B5, the “DR/DR OA” value is 0.78 and 0.778.

For B6, the “DR/DR OA” value was determined as 0.41.

Take B7: the “DR/DR OA” value came to 0.27.

For B8, the “DR/DR OA” value amounted to 0.96.

A further assay is described as follows: Probe fluorescence ratio response to palmitic acid relative to ADIFAB2. The settings on record: response relative to ADIFAB2. It is filed as binding. The procedure, abridged:
as §1
For the molecule B1, the “DR/DR PA” value was 0.25 and 0.251.

On to B2, for which the “DR/DR PA” value is given as 1.19.

In the case of B3, the “DR/DR PA” value amounted to 0.26.

Consider B4, for which the “DR/DR PA” value was 0.48 and 0.475.

For the molecule B5, the “DR/DR PA” value was 0.62 and 0.621.

As to B6, the “DR/DR PA” value worked out at 0.39.

As to B7, the “DR/DR PA” value was found to be 0.20.

On to B8, for which the “DR/DR PA” value turned out to be 0.99.
